Values joined by “and” are separate entries in the source; they are usually repeats but may differ in a detail not shown here. Equal entries are not always repeated.

The record followed here is US20260226120A1 (University of Washington, published 2026).

This assay has as its target HLA-DQ7 (MHC class II) on autologous antigen presenting cells (BLCL) of patient 5 (human). Kind of assay: cell-based or functional assay.

On to WSNGLGLDAL [P17 redesign Des-1 peptide (163-WSNGLGLDAL-172)], for which the “interferon gamma ELISpot with expanded patient 5 T cells” value (from here on “interferon gamma ELISpot”) is ~25 spot forming units/10,000 cells.
As for LSDGTGLNAL [P17 redesign Des-3 peptide (163-LSDGTGLNAL-172)], the “interferon gamma ELISpot” value was ~25 spot forming units/10,000 cells.
As to WSDGLALNAL [native dystrophin exon-6 P17 HLA-DQ7 epitope peptide (163-WSDGLALNAL-172)], the “interferon gamma ELISpot” value was ~75 spot forming units/10,000 cells and ~3 fold above background.
In the case of WSDGTGLNAL [P17 redesign Des-2 peptide (163-WSDGTGLNAL-172)], the “interferon gamma ELISpot” value was ~25 spot forming units/10,000 cells.
